# Experimental data: doi:10.1101/2023.05.12.540488 (bioRxiv, 2023)
# Like-named read-outs stand apart in the source and are kept apart here.
# B1: S-adenosyl-L-homocysteine hydrolase from Pyrococcus furiosus (enzyme)
# chain: MDCGKDYCVKDLSLAEEGWKKIDWVSRFMPVLQYIKREFEEKKPFKGVRIAATLHLEMKTAFLLLTLKAGGAEVSAAASNPLSTQDDVVAALAKAGVKVYAIRGESREQYYEFMHKALDIRPNIIIDDGADMISLVHKERQEMLDEIWGGSEETTTGVIRLRAMEKAGILKFPVIAVNDSYMKYLFDNRYGTGQSTWDGIMRATNLLIAGKNVVVVGYGWCGRGIAMRARGLGATVIVVEVDPIKALEARMDGFLVMDMKEAAKIGDIFVTATGNIKCIRREHFELMKDGAIMANAGHFDVEIWKPDLEKLAVEINNPRPNVTEYKLKDGRRLYLLADGRLVNLVAADGHPAEIMDMSFALQAKAAEYIKDNHERLEPKVYILPREIDEMVARIKLESMGIKIEELTEEQKKYLESWEHGT
# B2: S-adenosyl-L-homocysteine hydrolase from Mus musculus (enzyme)
# chain: MSDKLPYKVADIGLAAWGRKALDIAENEMPGLMRMREMYSASKPLKGARIAGCLHMTVETAVLIETLVALGAEVRWSSCNIFSTQDHAAAAIAKAGIPVFAWKGETDEEYLWCIEQTLHFKDGPLNMILDDGGDLTNLIHTKYPQLLSGIRGISEETTTGVHNLYKMMSNGILKVPAINVNDSVTKSKFDNLYGCRESLIDGIKRATDVMIAGKVAVVAGYGDVGKGCAQALRGFGARVIITEIDPINALQAAMEGYEVTTMDEACKEGNIFVTTTGCVDIILGRHFEQMKDDAIVCNIGHFDVEIDVKWLNENAVEKVNIKPQVDRYWLKNGRRIILLAEGRLVNLGCAMGHPSFVMSNSFTNQVMAQIELWTHPDKYPVGVHFLPKKLDEAVAEAHLGKLNVKLTKLTEKQAQYLGMPINGPFKPDHYRY
# B3: S-adenosyl-L-homocysteine hydrolase from Sulfolobus acidocaldarius (enzyme)
# chain: MDYRVKDLSLAEQGRKQIEWAELHMPALMEIRKRFNAEKPLDGIRIGAVLHVTKETAVLVETLKAGGAEIALAGSNPLSTQDDVAAGLAKNGIHVYAWRGETEKDYYDNIREILKYEPHVIMDDGGDLHAYVHENNLTSKIVGGTEETTTGVIRLKAMEEEKVLKYPVIAVNNAFTKYLFDNRIGTGQSTIDGILRATNILIAGKVAVVIGYGWVGRGIASRFKGMGARVIVVESSPFRALEALMDGFDVMTMNRASEIGDIFVTATGNLNVVSRDHILRMKDGAVLANSGHFNVEIDVKGLKEISVETREVRQNLEEYKLRNGKRIYLLADGRLVNLVAAEGHPSEVMDLSFCNQALSVEHLIKNKGKLENKVYNVPIEIDEQVARLKLKALGIEIEELTIEQKEYIKQWKYGT
# B4: S-adenosyl-L-homocysteine hydrolase from Methanococcus maripaludis (enzyme)
# chain: MSNVKDMSLAPSGHLKMEWAKRHMPVLCRIAEEFKNDKPFEGLTIGMALHLEAKTAILAETLLEGGAKIVITGCNPLSTQDDVAAACVEKGMEVYAWRGETNEEYYENLNKVLDSNPDIIIDDGADLIFLIHTERTELIGKIMGGCEETTTGIIRLKSMAEEGALKFPVVNVNDAYTKHLFDNRYGTGQSAMDGIIRTTNLLIAGKNVVVGGYGWCGRGVASRAAGHGANVIITEVNPIRALEAKMDGFTVLKMEEAAKIGDIFVTTTGCKDILRMEHFLLMKDGAVLSNAGHFDNEINKNDLKELSKSVKEARFNIEEYDLGNKKIYLLGEGRLVNLACADGHPCEVMDMSFANQALSAKFIKENKGKLENEVYEIPYEQDFKIALLKLHSMGADIDELSPEQRKYLSDWKEGT
# How the values were obtained:
# Assay in all cases: crystal structure
# [1] = biological target: the molecule itself
# [2] = biological target: the molecule itself; remark: listed apart in the source
# [3] = biological target: the molecule itself; remark: listed apart in the source
# [4] = biological target: the molecule itself; remark: listed apart in the source
protein,measurement,setting,value
B1,stoichiometry N,[1],4
B2,binding result,[2],binds
B3,stoichiometry N,[3],4
B4,stoichiometry N,[4],4
